Measured values as given in the supplement of paper PMC12042874.
± gives the uncertainty stated by the source.

assay: amyloid nucleation score (Sup35N fusion, yeast selection) (log enrichment); library NNK3; higher = more nucleation; inactive = no reads after selection
In short: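 Using DiMSum, nucleation scores were taken as the log enrichment of output over input reads, centred on the mode score of non-aggregating sequences. The input and output reads came from Illumina sequencing of plasmid inserts, with sequences under 100 input reads excluded. The yeast were psi-negative, expressed Sup35N fused to peptides of 20 random codons, were induced with 100 μM copper sulfate for 24 hours, and were grown 7 days at 30°C on medium lacking adenine and uracil.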

Amyloid nucleation score, -0.746 ± 0.98:
VASCMTGWLILDETMSSFKL

Amyloid nucleation score, 2.38 ± 0.073:
TPSGCAFNHCVMGTGDFQYM

Amyloid nucleation score, 0.775 ± 0.22:
TYSRFEISCMCWASYTIK

Amyloid nucleation score, 2.11 ± 0.076:
TPMIVPLMNSQVVYTLFTTK

Amyloid nucleation score, 0.816 ± 0.18:
TNVSKLLIMSFVCSIHRSHG

Amyloid nucleation score, 1.33 ± 0.12:
TVEKTWKTVYIYKDSVTLRN

Amyloid nucleation score, 1.4 ± 0.11:
TNTNFSVRFRTTKWMAKRRA

Amyloid nucleation score, -0.076 ± 0.54:
VAALFKGKAVSCGGFSFFN

Amyloid nucleation score, 1.96 ± 0.069:
TYYTGQLNVTEVVFLYISGS

Amyloid nucleation score, -0.116 ± 0.9:
TSFSYNLGTISDRCVWILAD

Amyloid nucleation score, 0.891 ± 0.16:
TTCILYPYLWCLMIHMSASN

Amyloid nucleation score, 0.904 ± 0.16:
TSILMPASDVLKMQVVPWLS

Amyloid nucleation score, 2.64 ± 0.08:
TYAIYVDSGIFLEVHGNLYM

Amyloid nucleation score, 0.368 ± 0.17:
TNVLCRSTKNVFYTKGL

Amyloid nucleation score, 1.7 ± 0.1:
TVVMIFLISYNFF

Amyloid nucleation score, -0.234 ± 0.69:
TMRVVFRHKTVNRIEVKVYF

Amyloid nucleation score, 0.235 ± 0.35:
TVHSIDRVVIIHRLMND

Amyloid nucleation score, 1.63 ± 0.092:
TNMYSDSVIYVMHYGIPGGP

Amyloid nucleation score, 0.478 ± 0.14:
TYFILSDCQASNIFSPMSDE

Amyloid nucleation score, 1.8 ± 0.067:
VCKVCFVERSCVVVVNV

Amyloid nucleation score, 1.25 ± 0.14:
TYAIGLHMLGSMGKIPDWEQ

Amyloid nucleation score, 0.974 ± 0.18:
TNRWSIFTVVLSTMNVASFV

Amyloid nucleation score, -0.498 ± 0.83:
VAPGDPNMIGHGLHVFTTTL

Amyloid nucleation score, 0.142 ± 0.52:
TSDVEVSRMIVCIWTSFIYQ

Amyloid nucleation score, -1.12 ± 1.5:
TYVGVYALIF

Amyloid nucleation score, 0.922 ± 0.18:
TYGQLCIKVTGLGHFYRPMG

Amyloid nucleation score, 2.57 ± 0.083:
TMYCLHLNIMSCWSNSTKKT

Amyloid nucleation score, inactive:
TLWYSFQKSSSNLTRSLGLK
TLYWFHTGICAYRMWTSVFF
TMLLLWYLHWSPAPRDCYLP
TMSLTDYLCGCSWFWCKTSR
TNIHKTVSMKW
TNKLIKFLDFHVRRVAVVGE
TNMYYSRVANDGIF
TNRFSRWCIRRRMSAVRYIG
TNRIHPFERVLFVCVSGQGV
TNRRN
TNVAHSKSSHHAYFIDWIGQ
TNVCLRRFLVTSLNGWVDGN
TPDQDMLVMPWISYGGGYWR
TPMRHYKY
TPQPLIIAQIVASPSEKKLL
TQCEVYCIYGVTHGLE
TQCSNTGCCIEGNLT
TQLHGDLYWLVRMRVWIVEI
TRAPVECNLCIGIEKDEVVR
TRFDSVVMRKFYWVGSVRGL
TRFSVDVRIFWIINYFLWLL
TRISTG
TRLLVWSETIAVWVRLQN
TRMRTCSKRY
TRNWLDSRKLD
TRPSTIHFPVWFVGKSCRCD
TRQNWENNFLLWYGEVMS
TRSNRRHVRVT
TRVIRLGGMALSFVFTIISC
TRVLSTSGFNQRPNCWFSTM
TRWGCSSSSNFGCFDDKRRL
TRWLCLDKLHLFLLCGKIAI
TRYIIMCPILCRSEMVLPVR
TSCLNKKHAVGFSCVFYH
TSDSMSLNFVTWVNQI
TSERLMVSQITAHILGFHEI
TSETRPIGDA
TSILPRSGANVKQLLLVLFV
TSIMSKGGGSYLSWNWHGWL
TSPPGRIDMQTSWDMFYADE
TSVCSHSEVCGWSYYTDLLS
TTDGFRVRSTLYNYICVWRY
TTEMWKALACPSHRTTRPCS
TTIYSEVLFRDHCVWQYPDR
TTMRSIPRGRRT
TVASYVNCKRFVLWNYWLFS
TVDNHGSA
TVFCLVKFRLEFYVTMPEYC
TVFDWLMHQMNC
TVHAYLFCGTAVMTVRSSVV
TVHNKMPHRLWNCTTLE
TVSCLLKKVSRIVTVCVEWD
TVSYRTTIWWRSINFNRRAL
TVTCRVQRHLDLN
TVVRNGIKTVYGLVDCVDS
TVWKGIREYSRS
TWAWPGRYYQWLQLQLGLNK
TWFYQ
TWGCYLLISNI
TWGIG
TWISITWTWPWKKWVLNLRY
TWLRSYMLYYVVWFF
TWNGMWFVLSSL
TWNVPWE
TYCYTVVTASMDAFEG
TYFDFVLYV
TYFMRPSNYHVLSLGAG
TYGGMSQSNLLRWCCFAWMY
TYIPFIIYLIGCVLVYVYVL
TYIRGQRCDIQMETWMTLCS
TYLALGLSSSMLRESLKWEV
TYLCGFHLYCC
TYLIYGGG
TYQSVDTVLSSVT
TYSGRIKLFLCWMLILSNGT
TYSGRSKSILTGSID
TYTYCTLNSLTDSRSETILV
TYVARIVN
VALWWTVMYRFFMALTFIMQ
VAPWKKPLPMKVTSAQFPNR
VASVIL
VCFDSVAMDNHDYPCVTRYM
VCFGWSNSFSAWT
VCGLLL
VCHKCCDRIQSLVGVRGHQE
VCKLVTYSYLLVREPRSADS
VCKMSNMFNSFCYYASQFCY

Amyloid nucleation score, -0.187 ± 0.66:
TSRHVLR

Amyloid nucleation score, 0.692 ± 0.13:
TSCGISSSAGFSVFMSEGAK

Amyloid nucleation score, 1.28 ± 0.13:
VCCSVSVAWKSWAHT
